Measurements reported in paper PMC9719863 (Molecular Metabolism, 2022).
*1 amine or outer side, *2 acyl side, *3 side chain or, on linkers, in order; H or OH if unused. Where no end group is shown, it is not given here. Side-chain parts run from the residue outwards. The star is where a group is joined. C18 diacid = O=C(O)CCCCCCCCCCCCCCCCC(=O)*; γGlu = O=C(O)[C@H](CCC(=O)[*:2])N[*:1]; Palmitoyl = CCCCCCCCCCCCCCCC(=O)*; AEEA = NCCOCCOCC(=O)O

T1: human GIP receptor (human, UniProt P48546 22-466)
T1 sequence: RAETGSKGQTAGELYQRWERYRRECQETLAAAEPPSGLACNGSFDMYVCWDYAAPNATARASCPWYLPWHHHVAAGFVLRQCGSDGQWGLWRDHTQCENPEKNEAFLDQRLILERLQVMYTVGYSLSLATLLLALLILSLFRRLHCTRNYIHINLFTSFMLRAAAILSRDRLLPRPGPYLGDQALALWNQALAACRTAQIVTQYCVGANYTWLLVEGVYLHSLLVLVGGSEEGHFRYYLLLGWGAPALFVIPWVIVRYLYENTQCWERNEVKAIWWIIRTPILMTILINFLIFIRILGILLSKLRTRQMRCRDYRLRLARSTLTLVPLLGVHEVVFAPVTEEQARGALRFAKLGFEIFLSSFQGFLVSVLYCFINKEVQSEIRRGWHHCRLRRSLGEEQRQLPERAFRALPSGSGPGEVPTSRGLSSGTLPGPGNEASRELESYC

T2: mouse GIP receptor (mouse, UniProt Q0P543 19-460)
T2 sequence: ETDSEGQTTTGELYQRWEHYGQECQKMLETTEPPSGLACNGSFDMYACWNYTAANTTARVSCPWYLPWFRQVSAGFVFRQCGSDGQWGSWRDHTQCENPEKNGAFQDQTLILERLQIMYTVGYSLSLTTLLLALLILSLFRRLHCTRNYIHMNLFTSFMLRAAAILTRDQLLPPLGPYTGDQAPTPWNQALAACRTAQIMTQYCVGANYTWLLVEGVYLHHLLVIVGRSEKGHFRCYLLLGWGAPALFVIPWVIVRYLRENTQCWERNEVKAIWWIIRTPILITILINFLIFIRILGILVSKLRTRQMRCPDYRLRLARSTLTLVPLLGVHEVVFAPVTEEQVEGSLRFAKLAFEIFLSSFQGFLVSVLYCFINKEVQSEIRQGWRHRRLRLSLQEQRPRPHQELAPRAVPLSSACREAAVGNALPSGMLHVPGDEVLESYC

T3: human GIP receptor (human) (UniProt P48546)
T3 sequence: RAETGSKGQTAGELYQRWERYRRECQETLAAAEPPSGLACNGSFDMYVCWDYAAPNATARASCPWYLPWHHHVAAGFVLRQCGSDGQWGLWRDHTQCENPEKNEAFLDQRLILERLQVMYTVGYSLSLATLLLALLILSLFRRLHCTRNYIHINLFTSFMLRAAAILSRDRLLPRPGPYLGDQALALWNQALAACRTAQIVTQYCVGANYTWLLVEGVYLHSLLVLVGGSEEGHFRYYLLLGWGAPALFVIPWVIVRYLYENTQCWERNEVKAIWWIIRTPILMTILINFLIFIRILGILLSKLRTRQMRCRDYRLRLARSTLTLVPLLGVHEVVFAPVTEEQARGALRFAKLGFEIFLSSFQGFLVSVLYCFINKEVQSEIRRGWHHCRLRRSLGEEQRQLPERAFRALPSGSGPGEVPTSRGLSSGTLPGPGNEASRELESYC

T4: mouse GIP receptor (mouse) (UniProt Q0P543)
T4 sequence: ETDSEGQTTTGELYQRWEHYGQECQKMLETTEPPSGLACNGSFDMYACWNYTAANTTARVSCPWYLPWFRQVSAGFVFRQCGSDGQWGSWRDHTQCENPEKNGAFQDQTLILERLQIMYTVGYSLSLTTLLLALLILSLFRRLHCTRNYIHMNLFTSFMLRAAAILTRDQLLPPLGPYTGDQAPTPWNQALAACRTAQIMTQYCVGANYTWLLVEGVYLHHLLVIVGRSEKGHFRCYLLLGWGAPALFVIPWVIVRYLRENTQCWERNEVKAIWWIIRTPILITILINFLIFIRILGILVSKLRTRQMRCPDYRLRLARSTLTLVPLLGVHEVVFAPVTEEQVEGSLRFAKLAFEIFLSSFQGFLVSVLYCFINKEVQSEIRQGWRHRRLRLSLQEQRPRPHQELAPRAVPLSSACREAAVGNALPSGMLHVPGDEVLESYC


Key:
human GIP receptor [1] = target: T1, human GIP receptor; test: cell-based or functional assay
mouse GIP receptor [2] = target: T2, mouse GIP receptor; test: cell-based or functional assay
human GIP receptor [3] = target: T1, human GIP receptor; test: radioligand binding
mouse GIP receptor [4] = target: T2, mouse GIP receptor; test: radioligand binding
[5] = target: T3, human GIP receptor (human)
[6] = target: T4, mouse GIP receptor (mouse)

Binder | maximal % inhibition of GIP-induced cAMP in BHK cells expressing hGIPR (human GIP receptor [1]) [%] | maximal % inhibition of GIP-induced cAMP in BHK cells expressing mGIPR (mouse GIP receptor [2]) [%] | IC50 (human GIP receptor [3]) [nM] | IC50 (mouse GIP receptor [4]) [nM] | maximal % inhibition of GIP-induced cAMP in BHK cells expressing hGIPR [5] [%] | maximal % inhibition of GIP-induced cAMP in BHK cells expressing mGIPR [6] [%]
Ac-TFISDYK([AEEA-AEEA-C18 diacid])IALDKIRQQEFVNWLLAQKG [[Nα-Ac, L14, R18, E21] hGIP(5-31)-K11(OEG2-C18-OH)] | 100 | 100 | 2.49 | 8.7 |  | 
Ac-TFISDYK([γGlu-Palmitoyl])IALDKIRQQEFVNWLLAQKG [[Nα-Ac, L14, R18, E21] hGIP(5-31)-K11 (γE-C16)] | 100 | 100 |  |  |  | 
Ac-TFISDK([γGlu-Palmitoyl])SIALDKIRQQEFVNWLLAQKG [[Nα-Ac, L14, R18, E21] hGIP(5-31)-K10 (γE-C16)] | 100 | 100 | 0.21 | 1 |  | 
TFISDYSIALDKIRQQEFVNWLLAQKG [[L14, R18, E21] hGIP(5-31)] | 81 | 93 | 1.8 | 18.7 |  | 
Ac-TFISDYK([AEEA-AEEA-γGlu-C18 diacid])IALDKIRQQEFVNWLLAQKG [[Nα-Ac, L14, R18, E21] hGIP(5-31)-K11(OEG2-γE-C18-OH)] | 100 | 100 | 3.83 | 24.8 |  | 
EGTFISDYSIALDKIRQQEFVNWLLAQK-NH2 [[L14, R18, E21] hGIP(3-30) amide] |  |  |  |  | 72 | 86
Ac-TFISDYK(C18 diacid)IALDKIRQQEFVNWLLAQKG [[Nα-Ac, L14, R18, E21] hGIP(5-31)-K11 (-C18-OH)] | 100 | 100 | 0.9 | 5.4 |  | 
EGTFISDYSIAMDKIHQQDFVNWLLAQK-NH2 [hGIP(3-30) amide] | 81 | 73 | 1.55 |  |  | 
FISDYSIALDKIRQQEFVNWLLAQKG [[L14, R18, E21] hGIP(6-31)] | 83 | 91 | 6.45 | 37.1 |  | 
